Experimental data published in patent US20240093191A1, “COMPOSITIONS AND METHODS FOR TREATING DISEASE ASSOCIATED WITH DUX4 OVEREXPRESSION” (RESEARCH INSTITUTE AT NATIONWIDE CHILDREN'S HOSPITAL, priority 2021, published 2024).

How the values were obtained:
Assay type in all cases: cell-based, human
[1] = system: DUX4 protein; experiment: Western blot of V5-tagged DUX4 protein in co-transfected HEK293 cells; settings: CMV.DUX4-FL/CMV.eGFP, HEK293, molar ratio 1 to 3, eGFP normalizer, relative to U6-milacZ, N = 3-8
Description: Western Blots. […] 50 mM Tris (pH 7.5-8.0), 150 mM NaCl, 0.1% (v/v) SDS, 0.5% (v/v) deoxycholate, 1% (v/v) triton X-100 (Fisher Scientific) and 1 tablet of protease inhibitor (ThermoFisher Scientific) per 10 mL of buffer. The total protein extract was quantified using the DC Protein Assay (Bio-Rad). Twenty microgram samples were separated on 12% SDS-PAGE, transferred to nitrocellulose membrane, using the wet transfer system, and incubated with the following antibodies: mouse monoclonal antibody to V5 (horseradish peroxidase [HRP]-coupled) [1:5,000 in 5% milk TBST buffer (150 mM NaCl, 50 mM Tris-HCl pH 7.4 and 0.1% Tween 20 (Fisher Scientific)), R961-25; Invitrogen); rabbit polyclonal eGFP antibody (1:50,000 in 3% BSA PBS, ab290; Abcam); mouse monoclonal β-actin antibodies (1:60,000; Sigma, St Louis, MO); overnight at 4° C. When using the eGFP antibody, membranes were blocked 30 mins with 3% BSA PBS prior to blotting. eGFP-probed blots were washed five times, 5 min each with 0.5% Tween 20 (Fisher Scientific) in TBST buffer, and then incubated with HRP-coupled goat anti-rabbit secondary antibody (1:250,000 in 3% BSA PBS, 115-035-144; Jackson ImmunoResearch) for 2 hours at room temperature. V5-probed blots were washed five times, 5 min each with 0.1% Tween 20 in TBST buffer. Following washes, blots were developed using Immobilon Western HRP substrate (Millipore) and exposed to film. DUX4.V5, and eGFP quantification was assessed using ImageJ.

[2] = system: mir-675-5p; experiment: TaqMan QRT-PCR of mature mir-675-5p from transfected constructs in HEK293 cells; settings: HEK293, 24 h post-transfection; for mir-675-5p levels compared to U6.mir-675: 23 mer mature mir-675-5p
Excerpt: RNA Extraction. RNA from HEK293 cells was extracted for Northern blot assay and QPCR. The miRVANA miRNA isolation kit (ThermoFisher Scientific) was used according to manufacturer's directions to extract total RNA encompassing small RNAs, such as miRNAs. To extract RNA from C57BL/6 skeletal muscles, cryopreserved muscles were crushed under suboptimal temperatures using liquid nitrogen and using mortar and pestle. Crushed muscles were then lysed using […] of miRVANA miRNA isolation kit lysis buffer, a TissueLyser and 1.0 mm zirconia beads (Biospec). Muscle was homogenized at 30 Hz for 30 sec with 10 sec rest. This was repeated 3 times.
TaqMan Gene Expression Assay. QRT-PCR was carried out to quantify the expression of pri-mir-675, mir-675-5p and mi405 using TaqMan probes (ThermoFisher Scientific). Experiments were started by eliminating genomic DNA from the RNA preparations, and then cDNA was generated using the High-Capacity cDNA Reverse Transcription Kit (Applied Biosystems) following manufacturer's instructions. Within the same cDNA reaction, 1×RT random hexamer primers were used to generate the cDNA for RPL13A, used as a reference gene, and for pri-mir-675. To generate the cDNA for mir-675, the RT mir-675 reverse primer provided by ThermoFisher Scientific was used. For mi405, the mi405 qPCR protocol was done as it was previously described [Wallace et al., Mol. Ther. Methods Clin. Dev. 8: 121-30 (2018)]. To quantify mir-675 and mi405 levels, RNA was extracted using the total RNA protocol for the mirVana miRNA Isolation Kit (Ambion) from HEK293 cells. cDNA was generated using the High-Capacity cDNA Reverse Transcription Kit (Applied Biosystems) using a mix of random hexamer primers and specific reverse primer for pri-mir-675 and mir-675-5p. For mi405, 200 nM of the stem-loop forming primer (5′-[…]-3′) (SEQ ID NO: 144) was also used for the RT step. A custom TaqMan assay (Applied Biosystems) including 1.5 μM of Forward primer (5′-[…]-3′) (SEQ ID NO: 145), 0.7 μM of Reverse primer (5′-GTGCAGGGTCCGAGGT-3′) (SEQ ID NO: 146), and 0.2 μM of mi405 probe (5′-6FAM-ATACGACGTCCAGGAT-3′) (SEQ ID NO: 147) was then run using the CFX Connect Real Time system apparatus (Bio-Rad). RPL13A (Mm02526700_g1; Applied Biosystems) served as the reference gene. The TaqMan gene expression assay consisted of using the TaqMan Gene Expression Master mix and TaqMan probes purchased from ThermoFisher Scientific. 1× of probe was mixed with 1× of the TaqMan Gene Expression Master mix (ThermoFisher Scientific), and with 20 ng of cDNA. The mir-675- and mi405-specific primers and probes were designed to quantify only the mir-675-5p and mi405 mature sequence (see TaqMan Gene Expression Master mix protocol).

[3] = system: mir-675-5p; experiment: ddPCR of all mature mir-675-5p sequences (TaqMan Advanced miRNA cDNA synthesis) in HEK293 cells
Description: Digital Droplet PCR (ddPCR). For mir-675 and mi405 constructs, RNA extraction was carried out as described for QPCR above. For cDNA synthesis, the TaqMan advanced cDNA synthesis kit (Thermo Fisher) was used and cDNA was prepared by following manufacturer's instructions. ddPCR was carried out using 1× ddPCR Supermix for probes (No dUTP) (Bio-Rad), 1× commercially available mir-675 advanced TaqMan probe, or a custom made mi405 advanced TaqMan probe (ThermoFisher) and 50 ng of cDNA. For DUX4 cDNA synthesis, the High-Capacity cDNA Reverse Transcription Kit (Applied Biosystems) was used according to manufacturer's instructions. Within the same cDNA reaction, 1×RT random hexamer primers and 25 pmoles of the Oligo(dT) primer were used to generate cDNA for DUX4 and DUX4-responsive biomarkers and for mouse Rpl13A, used as a reference gene. To quantify DUX4, the ddPCR reaction mixture (20 μL) contained 1× ddPCR Evagreen Supermix (Bio-Rad), 1 μM of forward and reverse DUX4 primers (Sharma et al., J Genet Syndr Gene Ther 2016 August; 7(4):303. doi: 10.4172/2157-7412.1000303. Epub 2016 Aug. 8), and 50 ng of cDNA. To quantify Rpl13A and DUX4-responsive biomarkers (Trim36 and Wfdc3), the 1× ddPCR Supermix for probes (No dUTP) and TaqMan specific probes were used for each of the genes. Droplets were generated using the Automatic Droplet generator QX200 AutoDG (Bio-Rad), the reactions were amplified in a C1000 Touch™ Thermal Cycler with 96-Deep Well Reaction Module (Bio-Rad). Cycling conditions were set up following the QX200 ddPCR Evagreen Supermix protocol. All assays are compatible with an annealing temperature of 58° C. Droplets were then read using the QX200 droplet reader (Bio-Rad). Finally, data were analyzed using the QuantaSoft analysis software (Bio-Rad). For quantification, each reaction of 20 μL was estimated to give at least 10,000 acceptable droplets.
In order to quantify the level of all these mature sequences, the TaqMan advanced miRNA cDNA synthesis method that uses universal reverse transcription (RT) chemistry to synthesize cDNA templates that can be quantified using the TaqMan Advanced miRNA probes was used. In this method, most of the processed mature miRNA sequences were quantified.

[4] = system: mir-675-5p; experiment: Small-transcript northern blot of mir-675 processing in HEK293 cells; settings: HEK293; anti-mir-675-5p biotinylated probe
Excerpt: Small-Transcript Northern Blots. […] (SEQ ID NO: 148)).

Row | Molecule | Average inhibition efficiency (%) of DUX4 protein levels [1] | Average inhibition efficiency (%) of DUX4 protein levels ([1]; listed as U6-mir-675-2.1.1) | mir-675-5p levels compared to U6.mir-675 [2] [%] | ratio of mir-675-5p/pri-mir-675 compared to U6.mir-675 [2] [%] | fold change of all mature mir-675-5p sequences compared to U6.mir-675 [3] [%] | mature mir-675-5p bands on northern blot [4]
1 | U6.mir-675-2.1.1: mir-675 construct with modified 5' and 3' flanking sequences (nucleic acid) DNA: TCTAGAGATCCGACGCCGCCATCTCTAGGCCCGCGCCGGCCCCCTCGCACAGACTTGTGGGAGAAGCTCGGCTACTCCCCTGCCCCGGTTAATTTGCATATAATATTTCCTAGTAACTATAGAGGCTTAATGTGCGATAAAAGACAGATAATCTGTTCTTTTTAATACTAGCTACATTTTACATGATAGGCTTGGATTTCTATAAGAGATACAAATACTAAATTATTATTTTAAAAAACAGCACAAAAGGAAACTCACCCTAACTGTAAAGTAATTGTGTGTTTTGAGACTATAAATATCCCTTGGAGAAAAGCCTTGTTTGCCCCAGGGTCTGGTGCGGAGAGGGCCCACAGTGGACTTGGTGACGCTGTATGCCCTCACCGCTCAGCCCCTGGGGATAACTCCTAATCACACTTTTTT | 83±3% | 83 ± 3 (N = 3) % | 282±34 | 207±38 | 213±51 | detectable mir-675 mature sequences
2 | U6.mir-675F2: U6 mir-675 construct with H1.mir-675-like flanks and cPPT/CTS sequence (nucleic acid) DNA: TTTTAAAAGAAAAGGGGGGATTGGGGGGTACAGTGCAGGGGAAAGAATAGTAGACATAATAGCAACAGACATACAAACTAAAGAATTACAAAAACAAATTACAAAAATTCAAAATTTTTCTAGAGATCCGACGCCGCCATCTCTAGGCCCGCGCCGGCCCCCTCGCACAGACTTGTGGGAGAAGCTCGGCTACTCCCCTGCCCCGGTTAATTTGCATATAATATTTCCTAGTAACTATAGAGGCTTAATGTGCGATAAAAGACAGATAATCTGTTCTTTTTAATACTAGCTACATTTTACATGATAGGCTTGGATTTCTATAAGAGATACAAATACTAAATTATTATTTTAAAAAACAGCACAAAAGGAAACTCACCCTAACTGTAAAGTAATTGTGTGTTTTGAGACTATAAATATCCCTTGGAGAAAAGCCTTGTTTGCCCCAGGGTCTGGTGCGGAGAGGGCCCACAGTGGACTTGGTGACGCTGTATGCCCTCACCGCTCAGCCCCTGGGGAATTCTTCGATTCTGCTTTTTT | 79 ± 6 (N = 3) % | – | 882±108 | 918±169 | 181±34 | detectable mir-675 mature sequences
